Where two headings read alike, the source gives them in different places.
What was measured:
SARS-CoV-2 WT RBD [1] = target: T1, SARS-CoV-2 WT RBD (SARS-CoV-2 WT (Wuhan-Hu-1), UniProt P0DTC2); assay: ELISA; settings: both partners purified
SARS-CoV-2 WT RBD [2] = target: T1, SARS-CoV-2 WT RBD
spike BA.1-6P = spike BA.1-6P (SARS-CoV-2, Omicron BA.1, strain)
[3] = target: recombinant FL spike WT-2P (SARS-CoV-2 WT (Wuhan-Hu-1), stabilised, biotin (EZ-Link Sulfo-NHS-Biotin) in the BLI experiments)
[4] = target: recombinant FL spike WT-6P (SARS-CoV-2 WT (Wuhan-Hu-1), UniProt P0DTC2, stabilised, biotin (EZ-Link Sulfo-NHS-Biotin) in the BLI experiments)

B1: S728-1157 IgG (antibody, V domains shown)
VH: EVQLVESGGGLVQPGGSLRLSCAASGLLVSRNYMNWVRQAPGKGLEWVSIIYSGGSTFYADSVEGRFTISRDESKNTLYLQMNSLRTDDTAVYYCARDLSDYGGIDCWGQGTLVTVSS
VL: YELTQPLSVSMALGQTARISCGGDNVGSQNVHWYQQRPGQAPVLVIYRDSNRPSGIPERFSGSKSGNTATLTISRAQAGDEADYYCQVWDSSTVAFGGGTKLTVL
notes: copies: 2 + 2
binding result (SARS-CoV-2 WT RBD [1]): binds

B2: S451-1140 (antibody, V domains shown)
VH: EVQLVESGGGLVPPGGSLRLSCAASGFIFSNYAMTWVRQAPGKGLEWVSAISGGGGSTDYADSVKGRFTISRDNSKNTLYLQMNSLRAEDTAVYYCAKDLFGSGWSLFDNWGQGTLVTVS
VL: not shown
binding result (SARS-CoV-2 WT RBD [2]): binds
binding result (spike BA.1-6P): binds
binding result [3]: binds
binding result [4]: binds

B3: S626-161 (antibody, V domains shown)
VH: QLQLQESGPGLVKPSEALSLTCTVSGGSISTSNYYWGWIRQPPGKGLEWIGSIYYRGGTHYNPSLKTRVTISVDTSKNQFSLKLSSVTAADTAVYYCARHTYFYDIVGAAVWEPFDIWGQGTMVTVSS
VL: not shown
binding result (SARS-CoV-2 WT RBD [2]): binds
binding result (spike BA.1-6P): binds
binding result [3]: binds
binding result [4]: binds

B4: LY-CoV555 (Eli Lilly) (antibody, V domains shown)
VH: QVQLVQSGAEVKKPGSSVKVSCKASGGTFSNYAISWVRQAPGQGLEWMGRIIPILGIANYAQKFQGRVTITADKSTSTAYMELSSLRSEDTAVYYCARGYYEARHYYYYYAMDVWGQGTAVTVSS
VL: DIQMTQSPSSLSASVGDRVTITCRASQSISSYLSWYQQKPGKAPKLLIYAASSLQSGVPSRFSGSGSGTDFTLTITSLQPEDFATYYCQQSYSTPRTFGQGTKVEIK
binding result (SARS-CoV-2 WT RBD [1]): binds

B5: REGN10933 (Regeneron) (antibody, V domains shown)
VH: QVQLVESGGGLVKPGGSLRLSCAASGFTFSDYYMSWIRQAPGKGLEWVSYITYSGSTIYYADSVKGRFTISRDNAKSSLYLQMNSLRAEDTAVYYCARDRGTTMVPFDYWGQGTLVTVSS
VL: DIQMTQSPSSLSASVGDRVTITCQASQDITNYLNWYQQKPGKAPKLLIYAASNLETGVPSRFSGSGSGTDFTFTISGLQPEDIATYYCQQYDNLPLTFGGGTKVEIK
notes: source: HEK293T, transiently cotransfected, purified (protein A-agarose beads); copies: 2 + 2
binding result (SARS-CoV-2 WT RBD [1]): binds

Source: paper PMC10104900 (The Journal of Clinical Investigation, 2023)
